Experimental data as given in article PMC6420652 (2019).

B1: antizyme-mRuby2 (antizyme with a C-terminal mRuby2 tag) (natural protein)
chain: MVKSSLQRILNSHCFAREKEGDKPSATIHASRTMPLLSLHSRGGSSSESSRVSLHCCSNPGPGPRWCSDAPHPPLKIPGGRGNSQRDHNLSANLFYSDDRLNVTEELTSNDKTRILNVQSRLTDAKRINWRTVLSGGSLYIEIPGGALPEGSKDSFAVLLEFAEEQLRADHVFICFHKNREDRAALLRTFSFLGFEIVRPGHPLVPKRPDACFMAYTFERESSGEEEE

Experiments:
Test in all cases: FRET
[1] = biological target: Clover-AZIN A325N (human, UniProt O14977 1-448, A325N)
[2] = biological target: B1
[3] = biological target: antizyme with an N-terminal mRuby2 tag (human, UniProt P54368 1-228)
Sequence of antizyme with an N-terminal mRuby2 tag (P54368 whole entry): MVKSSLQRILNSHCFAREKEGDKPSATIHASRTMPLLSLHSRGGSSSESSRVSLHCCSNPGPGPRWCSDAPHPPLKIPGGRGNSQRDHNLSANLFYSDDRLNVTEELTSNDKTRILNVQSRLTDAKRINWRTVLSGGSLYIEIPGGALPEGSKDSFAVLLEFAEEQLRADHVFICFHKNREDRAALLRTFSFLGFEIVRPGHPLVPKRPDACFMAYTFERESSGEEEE

| Kd [1] [µM] | Kd [2] [µM] | Kd [3] [µM] | Binder |
| --- | --- | --- | --- |
| 0.0356 | – | – | B1 |
| – | 0.029 | 0.089 | AZIN with a C-terminal Clover (GFP) tag (natural protein) MKGFIDDANYSVGLLDEGTNLGNVIDNYVYEHTLTGKNAFFVGDLGKIVKKHSQWQNVVAQIKPFYTVKCNSAPAVLEILAALGTGFACSSKNEMALVQELGVPPENIIYISPCKQVSQIKYAAKVGVNILTCDNEIELKKIARNHPNAKVLLHIATEDNIGGEEGNMKFGTTLKNCRHLLECAKELDVQIIGVKFHVSSACKESQVYVHALSDARCVFDMAGEIGFTMNMLDIGGGFTGTEFQLEEVNHVISPLLDIYFPEGSGVKIISEPGSYYVSSAFTLAVNIIAKKVVENDKFPSGVEKTGSDEPAFMYYMNDGVYGSFASKLSEDLNTIPEVHKKYKEDEPLFTSSLWGPSCDELDQIVESCLLPELNVGDWLIFDNMGADSFHEPSAFNDFQRPAIYYMMSFSDWYEMQDAGITSDSMMKNFFFVPSCIQLSQEDSFSAEA |
| – | – | 0.08 | Clover-AZIN (antizyme inhibitor with an N-terminal Clover tag) (natural protein) MKGFIDDANYSVGLLDEGTNLGNVIDNYVYEHTLTGKNAFFVGDLGKIVKKHSQWQNVVAQIKPFYTVKCNSAPAVLEILAALGTGFACSSKNEMALVQELGVPPENIIYISPCKQVSQIKYAAKVGVNILTCDNEIELKKIARNHPNAKVLLHIATEDNIGGEEGNMKFGTTLKNCRHLLECAKELDVQIIGVKFHVSSACKESQVYVHALSDARCVFDMAGEIGFTMNMLDIGGGFTGTEFQLEEVNHVISPLLDIYFPEGSGVKIISEPGSYYVSSAFTLAVNIIAKKVVENDKFPSGVEKTGSDEPAFMYYMNDGVYGSFASKLSEDLNTIPEVHKKYKEDEPLFTSSLWGPSCDELDQIVESCLLPELNVGDWLIFDNMGADSFHEPSAFNDFQRPAIYYMMSFSDWYEMQDAGITSDSMMKNFFFVPSCIQLSQEDSFSAEA |
